Test: yeast display, Sf9 membrane polyspecificity reagent, FACS + sequencing; frameworks hold sequencing errors
Method in brief: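 Genes from sorted yeast were amplified by colony PCR, read by MiSeq 2 × 250 sequencing and filtered on CDR length. These cells carried a synthetic nanobody library in Saccharomyces cerevisiae BJ5465 and were sorted by FACS into low and high (top ~1%) gates on anti-HA and streptavidin fluorescence. Polyreactivity is labelled according to the gate of origin.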

Sequence | polyreactivity (PSR sort gate)
QVQLVESGGGLVQAGGSLRLSCAASGRTFYRYAMGWYRQAPGKERELVATINWTSGSTNYADSVKGRFTISRDNAKNTVYLQMNSLKPEDTAVYYCAARGPVGYGWRYRPWHDYWGQGTQVTVSS | high polyreactivity
QVQLVESGGGLVQAGGSLRLSCAASGITFNSYAMGWYRQAPGKERELVAAITLTGGTTYYADSVKGRFTISRDNAKNTVYLQMNSLKPEDTAVYYCAAQYWWWSRFEYDSWGQGTQVTVSS | low polyreactivity
QVQLVESGGGLVQAGGSLRLSCASSGSTFYNNAMGWYRPAPGKDRELVAAISSGGGTYYADSVKGRFTISRDNAKNTVYLQMNSLKPEDTAVYYCAADFANTTHWGRIKRYDYWGQGTQVTVSS | low polyreactivity
QVQLVESGGGLVQAGGSLRLSCAASGRTFYSYAKGWYRQAPGKERELVASITSTGSTYYADSVKGRFTISRDNAKNTVYLQMNSLKPEDTAVYYCAARRQPRYSQRSTYYYWGQGTQVTVSS | high polyreactivity
QVQLVESGGGLVQAGGSLRLSCAASGITIWNNAMGWSRQAPGKESELVATISSNGGRTYYADSVKGRFTISRDNAKNTVYLQMNSLKPEDTAVYYCNAARRAYGYNYWGQGTQVTVSS | low polyreactivity
QVQLVESGGGLVQAGGSLRLSCAASGRIFSGYVKGWYRQAPGKERELVASISRGGSTNYADSVKGRFTISRDNAKNTVYLQMNSLKPEDTAVYYCNKRWFAPPPYSYVRSYDYWGQGTQVTVSS | low polyreactivity
QLQLVESGGGLVQAGGSLRLSCGASGFTFYVYAMGWSRQAPGKERELVAAISKSGGSTYYADSVKGRFTISRDHATNTVDLQMTSLKPEDTAVYSCAVFDNRSGYRGGHRYNSWGQATQVTVSS | high polyreactivity
QVQLVESGGGLVQAGGSLRLSCAASGGTFGYNAMGWYRQAPGKERELVADITRGGITYYADSVKGRFTISRDNAKNTVYLQMNSLKPEDTAVYYCNAEYYVFSYSYGGVLRGDYWGQGTQVTVSS | high polyreactivity
QVQLVESGGGLVQAGGSLRLSCAASGSTFLLNTMGWYRQAPGKERELVAVINSDDSTYYADSVKGRFTISRDNAKNTVYLQMNSLKPEDTAVYYCAAEPQYTRHMDSWGQGTQVTVSS | low polyreactivity
QVQLVESGGGLVQAGGSLRLSCAASGSILWQYAIGRYRQAPGKEMELVAAINQRGGSTYYADSVKGRFTISRDYAKNTVYLQMNSLKPEDTAVYYCNTYPTRTYPSYYYWGQGTQVTVSS | high polyreactivity
QVQLVESGGGLVQAGGSLRLSCAASGRIFKAYAMGWYRQAPGKERELVAAITSTGSTYYADSVKGRFTISRDNAKNTVYLQMNSLKPEDTAVYSCARRPSYYQGDYWGQGTQVTVSS | high polyreactivity
QVQLVESGGGLVQAGGSLRLSCAACGYSFPAYAMGWYRQAPGKERELVAAINRRGGTTYYADSVKGRFTISRDNAKNTVYLQMNSLKPEDTAVYYCARYSGLKDMDYWGQGTQVSVSS | high polyreactivity
QVQLVESGGGLVQAGGSLRLSCAASGRTFRGYAMGWYRQAPGKERELGAAITSSGGRTYYADSVKGRFTISRDNAKNTVYLQMNSLKPVDTAVYYCAKDYYSPRGYDYWGQGTQVTVSS | high polyreactivity
QVQLVESGGGLVQAGGSLRLSCAASGRTFVPYAMGWYRQAPGKERELVASITRSGGRTYYADSVKGRFTISRDNAKNTVYLQMNSLKPEDTAVYYCAVDWSVYYRTYDYWGQGTQVTVSS | high polyreactivity
QVQLVESGGGLVQAGGSLRLSCAASGLNFARNAMGWYRQAPGKERELVASITSGGSTNYADSVKGRFTISRDNAKNTVYLQMNSLKPEDTAVYFCNKAYFFPYPRYRYEYWGQGTQVTVSS | high polyreactivity
QVQLVESGGGLVQAGGSLRLSCAASGITFVNYAMGWYIQAPGKERELVAAISQSGAITFYADSVKGRFTISRDYAKNNVYLQMNSLKPEDTEVYYCAARRRRGDRSAYDYWGQGTQVTVSS | high polyreactivity
QVQLVESGGGLVQAGGSLRLSCAASGIISYKNVMGWYRQAPGKERELVAAISGRGGSTYYADSVKGRFTISRDNAKNTVYLQMNSLKPEDTAVYYCAKYPGISGYNYWGQGTQVTVSS | high polyreactivity
QVQLVESGGGLVQAGGSLRLSCAASGSTFASYAMGWYRQAPGKEREFVAAITRSGTSTYYADSVQGRFTISRDNAKNTVYLQMNSLKPEDTAVYYCNATRRTVGFGYWGQGTQVPVSS | high polyreactivity
QVQLVESGGGLVQAGGSLRLSCAASGSTSVDYTMGWYRQAPGKERELVAAIDYNGDSTYYADSVKGRFTISRDNAKNTVYLQMNSLKPEDTAVYYCAADYLSFVVVKLYGYWGQGTQVTVSS | low polyreactivity
QLQLVESGGGLVQAGGSLRLSSAASGITFRGYTMGWYRPAPGKERELVARIRSSDGSTYYADSVKGRFTISRDNAKNTVYLQMNSLKPEDTAVYYCNDDRRGRALKYYSWGQGTQVTVSS | low polyreactivity
QVQLVESGGGLVQAGGSLRLSCAASGRIFYSNDMGWYRQAPGKERELVAGINYDGGSTYYADSVKGRFTISRDNPKNTVYLQINSLKPEDTAVNYCNVRQVGWFNTPGDYWGQGTQVTVSS | low polyreactivity
QVRLVESGGGLVQAGRSLRLSCAASGRIFWNYAMGWYRQAPGKERELVATIDKSGGSTRYADSVKGRFTISRDTAKNTVYLQMNSLKPEDTAVYYCAARGPASRGFRGARSGLTFDYWGQGTQVTVSS | low polyreactivity

Sequence | polyreactivity (PSR sort gate)
QFQLVDSGGSLVQAGSSLPLSCPASGRTFPYNVMGWYRQAPGKERELFASIDGSGGSTYYADSVKGRFTISRDYAKNTVYLQMNSLNPVDTAVYYCAAVYYQSGNYWYGYLGQSPYDYWGLGTQVTVSS | low polyreactivity
QVQLVESGGGLVQAGGSLRISCAASGSTFSYYAMGWYRQAPGKERELVAAISQTGGTTYYADSVKGRFTISRDNAKNTVYLQMNSLTPEDTAVYYSNAARPGGHYWGQGTQVTVSS | low polyreactivity
QVQHVESGAGLVQAGGSLRLSCAASGIILLENAIGCYRQQPGKERELVSGISSGGNTNYADSVKGRFTISRDNAKNTVYLQINSLKPEDTAVYYCNTDWYLPRYVLPGYFSGTEDYWGKGTQVTVSS | low polyreactivity
QVQLVESGGGLVQAGGSLRLSCAASGSIFSYKAMGWYRQAPGKERELVAAISWSGGRTYYADSVKGRFTISRDNAKNTVYLQMNSLKPEDTAVYYCNAQYRLYSEFNYWGQGTQVTVSS | high polyreactivity
QVQLVESGGGLVQAGGSLRLSCAASGGIFGRNAMGWYRQAPGKERELVASISKSGGSTYYADSVKGRFTISRDNAKNTVYLQMKSLKPEDSAVYYCAARYSYFNWDNYYWGQGTLVTVSS | high polyreactivity
QVQLVESGGGLVQAGGSLRLSCAASGRIFDRNAMGWYRQAPGKERELVARIDPGDDTNYADSVKGRFTISRDNAKNTVYLQMNSLKPEDTAVYYCAADGVVVVAADMYYWGQGTQVTVSS | low polyreactivity
QVQLGESGGGLVQAGGSLRLSCAASGSIFFLYAMGWYRQAPGKERELVAAISLSTGNTYYADSVKGRFTISRDNAKNTVYVQKNSLKPEDTAVYYCAAEDYWSAYYWGQGTQVTVSS | high polyreactivity
QVQLVESGGGLVHAGGSLRLSCAASGLIFHHNAMGWYRQAPGKERELVAAISRSAGSTYYADSVKGRFTISRDNAKNTVYLQMNSLKPEDTAVYYCAKRPTPTSKYDTVGYGYWGQGTQVTVSS | low polyreactivity
QVQLVESGGGLVQAGGSLRLSCAASGSIFFFNAMGWSRQAPGKERELVATISDTTDTDYADSVKGRFTISRENGKNTVYLQMNSLKPEDTAVYYCAKVKAWTEYYYWGQGTQVTVSS | low polyreactivity
QVQLVESGGGLVQAGGSLRLSCAASGGIFVGYAMGWYRQAPGKERELVASIDGSDGSTFYADSVKGRFTISRDNAKNTVYLQMNSLKPVDTAVYYCNARATLLSPANTIRGYDYWGQGTQVTVSS | low polyreactivity
QVQLVESGGGLVQAGGSLRLSCAASGLIFASYAMGWYRQAPGKERELVATITVGGSTYYADSVKGRFTISRDNPKNTVYLQMISLKPEDTAVYYCNVGESVPWYEWGALWFSFDYWGQGTQVSVSS | high polyreactivity
QVQLVESGGGLVQAGGSLRLSCAASGLIFGVNDMGWYRQAPGKERELVAAITSRGGSTYYADSVKGRFTISRDNAKNTVYLQMNSLKPEDTAVYYCAAKYAYYEPYSWRPQRTYNYWGQGTQVTVSS | high polyreactivity
QVQLVESGGGLVQAGGSLRLSCAASGYIFKYYAMGWYIQAPGKERELVASITSGGRTNYADSVKGRFTISRDNAKNTVYLQMNSLKPEDTAVYYCAATSKYQQDPRRYDYWGHGTQVTVSS | high polyreactivity
QVQLVESGGGLVQAGGSLRISCAASGRIFGANAMGWYRQAPAKERELVAAITSSGGNTYYADSVKGRFTISRDNAKNTVYLQMNCLKPEDTAVYYWSARSRWVSYNYWGQGTQVTVSS | high polyreactivity
QVQLVESGGGLVQAGGSLRLSCAASGFIFLLYDMGWYRQAPGKERELVAAITSDGTTNYADSVKGRFTISRDNAKNTVYLQMNSLKPEDTAVYYCAADGFTRWGRYDYWGQGTQVTVSS | high polyreactivity
QVQLVESGGGLVQAGGSLRLSCAASGSTFRVNAMGWYRQAPGKERELVAVITSGGSTYADSVKGRFTISRDNAKNTVYLQMNSLKPEDTAVYYCAAESRWSWVHWSAYTYDYWGQGTQVTVSS | low polyreactivity
QVQLVESGGGLVQAGGSLRLSCAASGSTFRYYAMGWYRQAPGKERELVAGITSAGNTYYADSVKGRFTISRDNAKNTVYLQMNSLKPEDTAVYYCAARRWKGYYYWGQGTQVTVSS | high polyreactivity
QVQIVESGGGLVQAGGSLRLSCAASGSIFSYNVMGWYRQAPGKERELVAAISWNDGSTYYADSVKGRFTISRDNAKNTVYLQMNSLKPEDTAVYYCAAEYGRRWHNELDYWGQGTQVTLSS | low polyreactivity
QVQLVESGGGLVQAGGSLRLSCAASGFTYRTYAMGWYRQAPGKERELVAAITVSGGTYYADSVKGRFTISRDNAKNTVYFQMNSLKPEDTAVYYCTAKRFRTGFDYWGQGTQVTVSS | low polyreactivity
QVQLVESGGGLVQAGGSLRLSCAGSGFTFKWYAMGWYRQAPGKERELVAGISRGGTTNYADSVKGRFTISRDNAKNTVYLQLNSLKPEDTAVYYCAKTSYVSYRGLTYYYWGQGTQVTVSS | high polyreactivity
QVQLVESGGGLVQAGGSLRLSCAASGSTLYYYAMGWYRQAPGKERELVATITNGGSTNYADSVKGRFTISRDNAKNTVYLQMNSLKPEDTAVYYCNARRGYWGSHYWGQGTQVTVSS | high polyreactivity

Reference: the nanobody polyreactivity screen of Harvey et al. (2022)
